In patent US20030215899A1, “Reversible oxidation of protein tyrosine phosphatases” (CEPTYR, Inc., priority 2002, published 2003):
“Also recorded” adds a separate entry of the source.

How the values were obtained:
[1] = system: intracellular ROS in Rat-1 cells; experiment: ROS-induced DCF fluorescence (microscopy, flow cytometry); type: cell-based; details: 20 μM CM-H2DCFDA, growth factor 50 ng/ml, 10 mins
Protocol: The effects of H2O2 and t-BHP on inactivation of PTPs and activation of MAPK signaling pathways were next compared in a cellular context. Intracellular ROS were measured using 2′,7′-dichlorofluorescein diacetate (H2DCFDA) and 5-(and-6)-chloromethyl-2′,7′-dichlorodihydrofluorescein diacetate (CM-H2DCFDA) (all fluorescent ROS indicators from Molecular Probes, Eugene, Oreg.) either by fluorescence microscopy, using a Zeiss Axiovert 405M inverted microscope equipped with a fluorescence attachment and digital camera, or by cell sorting, using a FACSCalibur System ([…].), according to the manufacturer's recommendations. […] Images of ROS-induced DCF fluorescence are shown at magnification 400× (FIG. 3B upper panel). Cells (1×10^5) that underwent the same treatment as above were harvested and resuspended in Hanks' solution, then immediately subjected to flow cytometric analysis to measure ROS-induced DCF fluorescence. The basal peak indicates background fluorescence, whereas the rightward shifted peak indicates ROS-induced DCF fluorescence (FIG. 3B, lower panels). […]
Rat-1 cells were incubated with 20 μM CM-H2DCFDA in the dark for 20 mins, then exposed to peptide growth factors (50 ng/ml) for an additional 10 mins. Images of ROS-induced DCF fluorescence are shown at 50× magnification. […]

[2] = target: T1, 70 kDa PTP (SHP-2) (Rattus norvegicus, UniProt P41499); experiment: modified in-gel PTP assay, growth factor stimulated Rat-1 cells; type: cell-based
T1 construct: endogenous in cells; host or cells: Rat-1 fibroblasts
T1 sequence (P41499 1-593): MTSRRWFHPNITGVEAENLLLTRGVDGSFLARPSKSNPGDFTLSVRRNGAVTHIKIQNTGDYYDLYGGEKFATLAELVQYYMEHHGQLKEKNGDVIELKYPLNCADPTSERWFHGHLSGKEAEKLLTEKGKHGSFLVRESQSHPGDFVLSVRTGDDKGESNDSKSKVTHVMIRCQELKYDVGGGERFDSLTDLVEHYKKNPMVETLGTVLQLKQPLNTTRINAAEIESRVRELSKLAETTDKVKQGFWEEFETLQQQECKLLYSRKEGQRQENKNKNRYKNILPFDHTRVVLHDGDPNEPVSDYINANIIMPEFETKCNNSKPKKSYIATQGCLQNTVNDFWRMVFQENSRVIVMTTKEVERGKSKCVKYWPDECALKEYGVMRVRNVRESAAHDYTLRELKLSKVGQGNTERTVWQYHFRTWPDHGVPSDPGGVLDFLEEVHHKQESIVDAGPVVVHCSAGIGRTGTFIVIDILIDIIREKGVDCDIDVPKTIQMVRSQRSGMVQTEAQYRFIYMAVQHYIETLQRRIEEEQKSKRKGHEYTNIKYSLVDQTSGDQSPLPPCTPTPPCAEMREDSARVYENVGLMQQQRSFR
Excerpt: To determine whether ROS stimulated intracellular tyrosine phosphorylation through the oxidation and inhibition of cellular PTPs, a modified in-gel PTP activity assay was devised, as follows: As substrate, poly (4:1) Glu-Tyr (Sigma) was labeled with [γ-^32P]-ATP using the GST-FER fusion PTK, as described previously (Shen et al., 1998 J. Biol. Chem. 273:6474-81). The labeled substrates were used within three weeks to limit the variation of its specific activity from experiment to experiment. The lysis buffer (25 mM CH3COONa, 1% NP-40, 150 mM NaCl, 10% glycerol, pH 5.5) was degassed at 4° C. for overnight, before catalase and superoxide dismutase (both 100 μg/ml), protease inhibitors and 10 mM iodoacetic acid (IAA) were added. Following stimulation, cells were lysed under anaerobic conditions in an argon chamber. Lysates (25 μg) were processed as described herein and an “in-gel” phosphatase assay (Burridge and Nelson, 1995) was conducted using SDS-PAGE gels containing a radioactively-labeled substrate (1.5×10^6 cpm/20 ml gel solution, approximately 2 μM p-Tyr).
Cells were triggered with the appropriate stimulus and harvested under anaerobic conditions in lysis buffer containing IAA. Those PTPs that had not encountered ROS in the cell became irreversibly inactivated by alkylation of their active site Cys with IAA. However, in contrast, any PTPs in which the active site Cys had been oxidized in response to the stimulus were resistant to alkylation. For the “in-gel” phosphatase assay, a 10% SDS-PAGE gel was cast containing a radioactively-labeled substrate. An aliquot of cell lysate was subjected to SDS-PAGE and proteins in the gel were sequentially denatured, then renatured in the presence of reducing reagents. […] The reaction was then terminated by fixing, staining and destaining the gel. Finally the gel was dried and exposed to film. […]
As described above, treatment of Rat-1 cells with H2O2 led to inactivation of multiple PTPs (FIGS. 2-3). […] Lysates of PDGF-stimulated Rat-1 cells were then analyzed using the modified in-gel PTP activity assay described above. […]

[3] = system: MAPK; experiment: anti-phospho-MAPK / anti-MAPK immunoblot; type: cell-based, Rat; details: peptide growth factors, Rat-1 cells
Protocol: For immunoprecipitation, cells were rinsed with ice-cold PBS, then lysed in ice-cold 20 mM Hepes (pH 7.5), 1% NP-40, 150 mM NaCl, 10% glycerol, 200 μM […] and protease inhibitors (25 μg/ml of aprotinin and leupeptin). […] The anti-pTyr antibody G104 was described previously (Garton et al., 1997 Oncogene 15, 877-885). Anti-PDGFRββ antibody (Ab-X) was a gift from Dr. Daniel DiMaio at Yale University (Irusta and DiMaio, 1998 EMBO J. 17, 6912-6923). Anti-human G-CSF receptor (G-CSFR) antibody was provided by Dr. Toshio Hirano at Osaka University, Japan (Fukada et al., 1996 Immunity 5, 449-460). Lysate (400 μg) was incubated with 5 μg of antibody conjugated to protein A/G-Sepharose (Amersham Pharmacia, Arlington Heights, Ill.) for 2 hours at 4° C. For immunoblotting, aliquots of total lysates (30 μg per sample) or immunoprecipitates were subjected to SDS-PAGE and transferred to nitrocellulose filters, which were incubated with appropriate primary and secondary antibodies and the specific signals were visualized by the ECL detection system (Amersham Pharmacia).

B1: EGF: peptide growth factor (protein, UniProt P01133 23-1207, looked up)
Pro-epidermal growth factor: PQHWSCPEGTLAGNGNSTCVGPAPFLIFSHGNSIFRIDTEGTNYEQLVVDAGVSVIMDFHYNEKRIYWVDLERQLLQRVFLNGSRQERVCNIEKNVSGMAINWINEEVIWSNQQEGIITVTDMKGNNSHILLSALKYPANVAVDPVERFIFWSSEVAGSLYRADLDGVGVKALLETSEKITAVSLDVLDKRLFWIQYNREGSNSLICSCDYDGGSVHISKHPTQHNLFAMSLFGDRIFYSTWKMKTIWIANKHTGKDMVRINLHSSFVPLGELKVVHPLAQPKAEDDTWEPEQKLCKLRKGNCSSTVCGQDLQSHLCMCAEGYALSRDRKYCEDVNECAFWNHGCTLGCKNTPGSYYCTCPVGFVLLPDGKRCHQLVSCPRNVSECSHDCVLTSEGPLCFCPEGSVLERDGKTCSGCSSPDNGGCSQLCVPLSPVSWECDCFPGYDLQLDEKSCAASGPQPFLLFANSQDIRHMHFDGTDYGTLLSQQMGMVYALDHDPVENKIYFAHTALKWIERANMDGSQRERLIEEGVDVPEGLAVDWIGRRFYWTDRGKSLIGRSDLNGKRSKIITKENISQPRGIAVHPMAKRLFWTDTGINPRIESSSLQGLGRLVIASSDLIWPSGITIDFLTDKLYWCDAKQSVIEMANLDGSKRRRLTQNDVGHPFAVAVFEDYVWFSDWAMPSVMRVNKRTGKDRVRLQGSMLKPSSLVVVHPLAKPGADPCLYQNGGCEHICKKRLGTAWCSCREGFMKASDGKTCLALDGHQLLAGGEVDLKNQVTPLDILSKTRVSEDNITESQHMLVAEIMVSDQDDCAPVGCSMYARCISEGEDATCQCLKGFAGDGKLCSDIDECEMGVPVCPPASSKCINTEGGYVCRCSEGYQGDGIHCLDIDECQLGEHSCGENASCTNTEGGYTCMCAGRLSEPGLICPDSTPPPHLREDDHHYSVRNSDSECPLSHDGYCLHDGVCMYIEALDKYACNCVVGYIGERCQYRDLKWWELRHAGHGQQQKVIVVAVCVVVLVMLLLLSLWGAHYYRTQKLLSKNPKNPYEESSRDVRSRRPADTEDGMSSCPQPWFVVIKEHQDLKNGGQPVAGEDGQAADGSMQPTSWRQEPQLCGMGTEQGCWIPVSSDKGSCPQVMERSFHMPSYGTQTLEGGVEKPHSLLSANPLWQQRALDPPHQMELTQ
modifications: Pro-epidermal growth factor
[1]
  production of intracellular ROS: ROS production was not detected
[2]; peptide growth factors, lysis with 10 mM IAA
  oxidation and inhibition of SHP-2: not following exposure of these cells to EGF or FGF; also recorded: not by EGF or FGF
[3]
  activation of MAPK: activated MAPK to a similar extent

B2: G-CSF: ligand of the G-CSFR/PDGFR chimeric receptors (protein, UniProt P09919 31-207, looked up)
Granulocyte …: TPLGPASSLPQSFLLKCLEQVRKIQGDGAALQEKLVSECATYKLCHPEELVLLGHSLGIPWAPLSSCPSQALQLAGCLSQLHSGLFLYQGLLQALEGISPELGPTLDTLQLDVADFATTIWQQMEELGMAPALQPTQGAMPAFASAFQRRAGGVLVASHLQSFLEVSYRVLRHLAQP
[2]; Rat-1 cells transfected with WT G-CSFR/PDGFR chimeric receptor
  oxidation and inactivation of SHP-2: rapid oxidation and inactivation of SHP-2
[2]; Rat-1 cells transfected with Y1009F mutant G-CSFR/PDGFR chimeric receptor
  oxidation of SHP-2: did not induce oxidation of SHP-2
